Measurements from paper PMC4194032 (Cell, 2014).

T1: Snf7-VN (budding yeast, UniProt P39929 1-240)
T1 sequence (looked up): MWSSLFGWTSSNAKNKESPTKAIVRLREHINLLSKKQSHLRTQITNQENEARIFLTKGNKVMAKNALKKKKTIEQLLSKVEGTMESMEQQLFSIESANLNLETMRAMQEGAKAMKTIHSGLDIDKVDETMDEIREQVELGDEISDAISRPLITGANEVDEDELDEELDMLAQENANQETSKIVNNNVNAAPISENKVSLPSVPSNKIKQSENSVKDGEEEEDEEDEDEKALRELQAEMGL

T2: Heh2-VN (budding yeast, UniProt Q03281 1-663)
T2 sequence (looked up): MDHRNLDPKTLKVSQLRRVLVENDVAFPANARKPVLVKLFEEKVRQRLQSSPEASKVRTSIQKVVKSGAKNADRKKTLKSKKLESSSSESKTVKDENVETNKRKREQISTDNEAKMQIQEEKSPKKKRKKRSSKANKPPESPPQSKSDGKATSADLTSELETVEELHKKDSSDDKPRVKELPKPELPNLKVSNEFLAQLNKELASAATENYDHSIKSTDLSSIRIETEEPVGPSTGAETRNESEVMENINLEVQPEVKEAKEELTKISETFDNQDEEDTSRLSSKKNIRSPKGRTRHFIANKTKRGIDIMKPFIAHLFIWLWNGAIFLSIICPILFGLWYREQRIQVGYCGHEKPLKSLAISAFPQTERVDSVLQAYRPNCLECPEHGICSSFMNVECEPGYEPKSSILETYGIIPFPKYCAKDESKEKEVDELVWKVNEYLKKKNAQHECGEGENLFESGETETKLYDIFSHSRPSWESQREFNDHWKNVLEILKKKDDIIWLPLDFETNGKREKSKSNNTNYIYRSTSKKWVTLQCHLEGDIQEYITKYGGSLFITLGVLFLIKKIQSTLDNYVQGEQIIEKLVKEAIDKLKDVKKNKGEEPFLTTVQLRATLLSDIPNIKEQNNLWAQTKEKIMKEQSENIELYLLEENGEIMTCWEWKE

B1: Vps20-VC (natural protein, budding yeast, UniProt Q04272 1-221, looked up)
chain: MGQKSSKVHITKTDRAILEVKRSKDEIHKFTRRTDNLILVEKSQLKDLIRKNPENYKSNMKVRFLLKRIHYQEHLLQQASDQLINLENMVSTLEFKMVEKQFINGLKNGNEILKKLNKEFSNVDELMDDVQDQIAYQNEINETLSRSLVGTSNYEDDLDKELDALESELNPEKMNNAKVANMPSTEGLPSLPQGEQTEQKEREEFATEERSDTKEPLALLS
B2: Bro1-VC (natural protein, budding yeast, UniProt P48582 1-844, looked up)
chain: MKPYLFDLKLKDTEKLDWKKGLSSYLKKSYGSSQWRTFYDEKATSELDHLRNNANGELAPSSLSEQNLKYYSFLEHLYFRLGSKGSRLKMDFTWYDAEYSSAQKGLKYTQHTLAFEKSCTLFNIAVIFTQIARENINEDYKNSIANLTKAFSCFEYLSENFLNSPSVDLQSENTRFLANICHAEAQELFVLKLLNDQISSKQYTLISKLSRATCNLFQKCHDFMKEIDDDVAIYGEPKWKTTVTCKLHFYKSLSAYYHGLHLEEENRVGEAIAFLDFSMQQLISSLPFKTWLVEFIDFDGFKETLEKKQKELIKDNDFIYHESVPAVVQVDSIKALDAIKSPTWEKILEPYMQDVANKCDSLYRGIIPLDVYEKESIYSEEKATLLRKQVEETETANLEYSSFIEFTNLPRLLSDLEKQFSDGNIFSNTDTQGQLMRDQIQTWCKFIQTNEFRDIEEQMNKIVFKRKQILEILSALPNDQKENVTKLKSSLVAASNSDEKLFACVKPHIVEINLLNDNGKIWKKFDEFNRNTPPQPSLLDIDDTKNDKILELLKQVKGHAEDLRTLKEERSRNLSELRDEINNDDITKLLIINKGKSDVELKDLFEVELEKFEPLSTRIEATIYKQSSMIDDIKAKLDEIFHLSNFKDKSSGEEKFLEDRKNFFDKLQEAVKSFSIFASDLPKGIEFYDSLFNMSRDLAERVRVAKQTEDSTANSPAPPLPPLDSKASVVGGPPLLPQKSAAFQSLSRQGLNLGDQFQNLKISAGSDLPQGPGIPPRTYEASPYAATPTMAAPPVPPKQSQEDMYDLRRRKAVENEERELQENPTSFYNRPSVFDENMYSKYSS
B3: Snf7-VC (natural protein, budding yeast, UniProt P39929 1-240, looked up)
chain: T1 sequence (looked up)

How the values were obtained:
Test in all cases: split reporter
Heh1-VN (budding yeast) = Heh1-VN (budding yeast) (UniProt Q03707)
Snf7-VN = target: T1, Snf7-VN
Heh2-VN = target: T2, Heh2-VN

Heh1-VN (budding yeast), sequence (Q03707 whole entry): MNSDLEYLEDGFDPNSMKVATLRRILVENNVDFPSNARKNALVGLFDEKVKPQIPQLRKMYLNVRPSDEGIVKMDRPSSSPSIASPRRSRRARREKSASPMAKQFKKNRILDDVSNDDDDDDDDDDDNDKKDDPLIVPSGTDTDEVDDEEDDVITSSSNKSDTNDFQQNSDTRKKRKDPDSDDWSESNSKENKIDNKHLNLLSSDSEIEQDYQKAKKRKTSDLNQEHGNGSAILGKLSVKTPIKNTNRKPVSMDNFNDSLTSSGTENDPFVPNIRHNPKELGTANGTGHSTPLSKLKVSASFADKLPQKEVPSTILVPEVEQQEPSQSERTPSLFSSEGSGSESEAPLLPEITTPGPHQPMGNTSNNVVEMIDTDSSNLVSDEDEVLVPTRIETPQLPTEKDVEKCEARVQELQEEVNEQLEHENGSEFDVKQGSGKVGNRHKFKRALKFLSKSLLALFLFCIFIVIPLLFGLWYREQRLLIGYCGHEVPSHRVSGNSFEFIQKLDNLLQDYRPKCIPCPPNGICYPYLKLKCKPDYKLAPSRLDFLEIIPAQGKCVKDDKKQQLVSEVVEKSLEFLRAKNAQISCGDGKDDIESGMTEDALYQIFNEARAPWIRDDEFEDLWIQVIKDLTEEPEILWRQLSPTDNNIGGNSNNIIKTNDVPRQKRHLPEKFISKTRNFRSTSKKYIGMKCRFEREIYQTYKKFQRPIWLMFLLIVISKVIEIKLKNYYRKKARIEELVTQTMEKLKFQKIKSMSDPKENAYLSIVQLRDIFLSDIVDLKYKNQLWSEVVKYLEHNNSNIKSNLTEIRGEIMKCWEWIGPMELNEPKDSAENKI

Molecule | percent of cells with Venus fluorescence (Snf7-VN) | further results
Snf7-VC (from UniProt P39929 1-240) (natural protein) |  | percent of cells with Venus fluorescence (Heh1-VN (budding yeast)): 45 % of cells
B1 | ~90 % of cells | 
B2 | ~90 % of cells | 
B3 |  | percent of cells with Venus fluorescence (Heh2-VN): ~18 % of cells
